Literature values, collected in PMC3128382.

Molecular target: TbpA (Neisseria gonorrhoeae) (UniProt Q01996)
Chain of UniProt Q01996 (Q01996 25-915): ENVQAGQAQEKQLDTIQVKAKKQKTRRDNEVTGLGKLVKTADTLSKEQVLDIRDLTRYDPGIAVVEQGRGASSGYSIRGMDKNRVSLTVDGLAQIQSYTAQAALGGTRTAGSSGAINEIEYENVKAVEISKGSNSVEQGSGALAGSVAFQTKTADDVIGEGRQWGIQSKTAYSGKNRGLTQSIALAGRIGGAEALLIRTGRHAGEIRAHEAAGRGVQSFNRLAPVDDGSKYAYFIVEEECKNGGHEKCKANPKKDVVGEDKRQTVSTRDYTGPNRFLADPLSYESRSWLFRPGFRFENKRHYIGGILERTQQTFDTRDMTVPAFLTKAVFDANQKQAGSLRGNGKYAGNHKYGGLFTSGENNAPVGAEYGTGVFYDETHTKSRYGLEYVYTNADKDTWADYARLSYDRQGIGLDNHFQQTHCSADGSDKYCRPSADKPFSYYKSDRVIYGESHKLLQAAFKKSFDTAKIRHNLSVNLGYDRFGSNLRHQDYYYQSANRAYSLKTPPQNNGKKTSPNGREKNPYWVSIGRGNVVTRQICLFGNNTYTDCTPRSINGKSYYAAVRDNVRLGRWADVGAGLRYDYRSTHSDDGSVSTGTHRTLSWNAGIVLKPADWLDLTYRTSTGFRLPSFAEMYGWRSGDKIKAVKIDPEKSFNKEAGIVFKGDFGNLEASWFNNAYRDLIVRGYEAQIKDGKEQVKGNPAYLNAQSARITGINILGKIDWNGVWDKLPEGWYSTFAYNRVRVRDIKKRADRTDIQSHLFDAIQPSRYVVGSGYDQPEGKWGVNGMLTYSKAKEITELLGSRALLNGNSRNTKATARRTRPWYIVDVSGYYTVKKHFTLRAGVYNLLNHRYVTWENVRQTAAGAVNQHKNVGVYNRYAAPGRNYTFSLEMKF

Transferrin (from UniProt P02787)
Kd: 10 nM
